Assays:
[1] = format: physicochemical; details: 0.2 mg/mL in PBS, three samples
Protocol: 3.4 Analysis of thermostability by Differential Scanning Fluorimetry Briefly, triplicate reaction mixes of antibodies at 0.2 mg/mL and SYPRO Orange dye (ThermoFisher) were prepared in 25 μL of PBS, transferred to wells of MicroAmp Optical 96-Well Reaction Plates (ThermoFisher), and sealed with MicroAmp Optical Adhesive Film (ThermoFisher). Melting curves were run in a 7500 fast Real-Time PCR system (Applied Biosystems) selecting TAMRA as reporter and ROX as passive reference. The thermal profile included an initial step of 2 min at 25° C. and a final step of 2 min at 99° C., with a ramp rate of 1.2%. The first derivative of the raw data was plotted as a function of temperature to obtain the derivative melting curves. Melting temperatures (Tm) of the antibodies were extracted from the peaks of the derivative curves.
The thermostability of the variant was also analysed by Differential Scanning Fluorimetry analysis as described in Example 3.4.

[2] = Toxicity in BALB/c mice (haematology, clinical chemistry, observations); format: in vivo, mouse; details: single IP dose 1000 μg
Protocol: Hemotoxicity was investigated in an experiment in which 6-8 week old female BALB/c mice (20-25 g) were injected intraperitoneally with a single dose of 1000 μg anti-HER3 10D1 antibody or an equal volume of PBS. Blood samples were obtained at 96 hours post injection and analysed for numbers of different types of white blood cells by flow cytometry and electrolyte indices for NA^+, K^+, and Cl^−.
Mice were also analysed for correlates hepatotoxicity, nephrotoxicity and pancreatic toxicity at 96 hours post injection. […] Left bars represent vehicle, right bars represent 10D1 treatment, end points of the Charles River reference range indicated with dotted lines.
3 mice were injected with each treatment, 4 mice were injected with PBS control. Blood samples were obtained at 96 hours post injection and analysed for RBC indices (total RBC count, haematocrit, haemoglobin, platelet count, mean corpuscular volume, mean corpuscular haemoglobin, mean corpuscular haemoglobin concentration) and WBC indices (total WBC count, lymphocyte count, neutrophil count, monocyte count). Analysis was performed using a HM5 Hematology Analyser.
A further study was performed in the BALB/c mice to assess the toxicological effects of repeat doses of 500 μg (˜25 mg/kg) 10D1 F.FcA or 10D1F.FcB. Antibody was administered once a week for four weeks. Blood was obtained 28 days after the first administration.

[3] = system: cynomolgus macaque HER3; assay: ELISA cross-reactivity, cynomolgus macaque HER3; format: binding
Protocol: ELISAs were used to determine the binding specificity of the antibodies. The antibodies were analysed for binding to human HER3 polypeptide, as well as respective mouse, rat and monkey homologues of HER3 (Sino Biological Inc., China). The antibodies were also analysed for their ability to bind to human EGFR and human HER2 (Sino Biological Inc., China).
ELISAs were carried out according to standard protocols. Briefly, 96-well plates (Nunc, Denmark) were coated with 0.1 μg/ml of target polypeptide in phosphate-buffered saline (PBS) for 16 h at 4° C. After blocking for 1 h with 1% BSA in Tris buffer saline (TBS) at room temperature, the anti-HER3 antibody was serially diluted with the highest concentration being 10 μg/ml, and added to the plate. Post 1 h incubation at room temperature, plates were washed three times with TBS containing 0.05% Tween 20 (TBS-T) and were then incubated with a HRP-conjugated anti-His antibody (Life Technologies, Inc., USA) for 1 h at room temperature. After washing, plates were developed with colorimetric detection substrate 3,3′,5,5′-tetramethylbenzidine (Turbo-TMB; Pierce, USA) for 10 min. The reaction was stopped with 2M H2SO4, and OD was measured at 450 nm. […]

[4] = system: N87 cells; assay: CCK-8 proliferation assay, N87; format: cell-based, human; details: 5 days
Protocol: Briefly, N87 and FaDu cells were treated with serially diluted concentrations of anti-HER3 antibody 10D1, starting from 100 μg/ml with a 9-point half log dilution. Cell proliferation was measuring using the CCK-8 proliferation assay (Dojindo, Japan) after a period of 5 days, in accordance with the manufacturer's instructions. Briefly 1× CCK-8 solution was added to each well followed by incubation for 2 h at 37° C. The OD was then measured at 450 nm.

[5] = system: N87 cell-line derived mouse gastric carcinoma model; assay: N87 cell-line derived xenograft model; format: in vivo; details: N87, IP biweekly 500 μg, 10 doses
Protocol: Tumor volumes were measured 3 times a week using a digital caliper and calculated using the formula [L ×W2/2]. Study End point was considered to have been reaches once the tumors of the control arm measured >1.5 cm in length.
The model was established by subcutaneous injection of 1×10^6 N87 cells into the right flank (n=6 mice per treatment group).
10D1 was administered IP, biweekly at 500 μg per dose (for a total of 10 doses); a control treatment group received an equal volume of PBS.
Tumour cells are inserted with matrigel subcutaneously into the right flanks of female NCr nude mice.
Murine tumour efficacy studies were performed using cell-line derived xenograft (CDX) models in mice. Female NCr nude mice (5-8 weeks old, 21-29 g) were subcutaneously implanted with N87, A549, FaDu, OvCAR8 cells. Treatment was initiated when tumours reached approximately 100 to 200 mm^3. Vehicle (PBS) or therapeutic antibodies (25 mg/kg) were administered intraperitoneally (IP) at indicated time points (weekly FaDu and OvCAR8, twice weekly N87 and A549). Tumours were measured twice per week using a calliper and tumour volume (mm^3) was calculated. Each data point represents the mean tumour volume ±SEM (n=8 mice).

[6] = system: FaDu cells; assay: Phosphoprotein Antibody Array; format: cell-based, human; details: 50 μg/ml 4 hrs, NRG 100 ng/ml
Protocol: FaDu cells were seeded in wells of a 6 well plate with 10% serum at 37° C., 5% CO2. After 16 hrs, cells were starved by culture overnight in 1% FBS cell culture medium. On the following day cells were treated with 50 μg/ml anti-HER3 antibody 10D1 for 4 hrs, followed by 15 min stimulation with NRG (100 ng/ml). Proteins were then extracted, quantified using standard Bradford protein assay, and incubated overnight with pre-blocked Phosphoprotein Antibody Array membrane (Ray Biotech) at 4° C. The membrane was then washed with washing buffer and incubated with detection antibody cocktail for 2 hrs at room temperature, followed by washing and incubation with HRP-Conjugated anti-IgG. After 2 hrs the membrane was washed and probed using the kit detection buffer. Images were captured with Syngene Gbox imaging system, the intensity of each dot/phosphoprotein was measured and percent inhibition was calculated by comparison with intensity measured for cells treated in the same way in the absence of the antibody.

B1: 10D1: anti-HER3 antibody clone, VH SEQ ID NO:24, VL SEQ ID NO:74; [1] of Example 2.2 (antibody, V domains shown)
VH: DVQLQESGPDLVKPSQSLSLTCTVTGYSITSGYSWHWIRQFPGNKLEWMGSIHYSGGTNYNPSLKSRISITRDTSKNQFFLQLNSVTTEDTATYFCARMTTAPRYPFDYWGQGTTLTVSS
VL: DIVMTQSQKFMSTSVGDRVSVTCKASQIVGSNVAWYQQKPGQSPKPLIYSASYRYSGVPDRFTASGSGTDFTLTITNVQSEDLAEYFCQQYSSHPLTFGAGTKLELK
In the case of B1, the Tm [1] is reported as 70.3 °C, the “clinical signs, gross necroscopy or weight” value [2] is reported as “No differences” and the “kidney, liver or pancreatic indices” value ([2]; 96 hours) is reported as “no effect on the kidney, liver or pancreatic indices”. The “numbers of different blood cell types and electrolyte indices” value ([2]; 96 hours) was “within the Charles River reference range”, the “binding / cross-reactivity with cynomolgus macaque HER3” value [3] was “substantial cross-reactivity” and the cell proliferation [4] was “dose-dependent inhibition of cell proliferation”. The “inhibition of tumor growth” value [5] was about 76% and the “intracellular signalling pathways affected” value [6] was “inhibit P13K/AKT/mTOR and MAPK signalling”.

Source: patent US20250122303A1, “TREATMENT AND PREVENTION OF CANCER USING HER3 ANTIGEN-BINDING MOLECULES” (Hummingbird Bioscience Pte. Ltd., priority 2021, published 2025)
